Key:
haptoglobin 1-1 = molecular target: T1, haptoglobin 1-1 (Homo sapiens, UniProt P00738); experiment: Complex formation of modified hemoglobins with haptoglobin 1-1 (size exclusion / anion exchange chromatography); format: binding; settings: THb-PQ mixture with haptoglobin 1-1, room temperature, 21 hours
T1 construct: Hp 1-1 is composed of two α^1β dimers and has a molecular weight of about 98 kDa
T1 sequence (P00738 19-347 isoform P00738-2 limits assumed): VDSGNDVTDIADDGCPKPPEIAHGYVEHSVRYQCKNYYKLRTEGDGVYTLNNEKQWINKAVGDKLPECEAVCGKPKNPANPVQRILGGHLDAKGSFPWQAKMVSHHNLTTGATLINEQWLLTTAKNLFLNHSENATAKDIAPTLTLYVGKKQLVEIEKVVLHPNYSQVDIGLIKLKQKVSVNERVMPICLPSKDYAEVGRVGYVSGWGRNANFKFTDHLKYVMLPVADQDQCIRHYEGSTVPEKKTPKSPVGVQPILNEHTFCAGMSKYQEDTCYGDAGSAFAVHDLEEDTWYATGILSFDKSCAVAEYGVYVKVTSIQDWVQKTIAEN
T1 sequence (P00738 103-347 isoform P00738-2 limits assumed): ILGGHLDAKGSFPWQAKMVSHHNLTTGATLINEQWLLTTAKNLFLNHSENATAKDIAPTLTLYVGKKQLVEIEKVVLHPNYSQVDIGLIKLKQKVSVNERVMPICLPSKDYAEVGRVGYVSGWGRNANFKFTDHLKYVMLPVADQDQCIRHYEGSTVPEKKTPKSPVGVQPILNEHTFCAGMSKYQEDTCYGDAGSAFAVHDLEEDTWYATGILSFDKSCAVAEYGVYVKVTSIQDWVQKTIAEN

rat haptoglobin = molecular target: T2, rat haptoglobin (Rattus norvegicus, UniProt P06866); experiment: Binding of modified human Hb ([3H]-NEM-Hb) to rat haptoglobin in plasma (SEC)
T2 construct: combined with rat serum containing haptoglobin; from tissue; host or cells: rat serum
T2 sequence (P06866 19-101 limits assumed): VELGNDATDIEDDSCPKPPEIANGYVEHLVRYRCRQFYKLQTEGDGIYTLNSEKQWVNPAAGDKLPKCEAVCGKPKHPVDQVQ
T2 sequence (P06866 103-347 limits assumed): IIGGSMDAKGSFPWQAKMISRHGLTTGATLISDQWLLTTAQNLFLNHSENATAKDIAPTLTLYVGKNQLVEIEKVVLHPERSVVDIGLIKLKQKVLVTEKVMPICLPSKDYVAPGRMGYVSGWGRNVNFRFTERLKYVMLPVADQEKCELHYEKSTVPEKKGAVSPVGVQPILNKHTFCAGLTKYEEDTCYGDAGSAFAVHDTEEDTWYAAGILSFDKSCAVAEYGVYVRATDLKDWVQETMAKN
Method: 1 mCi of ^3H-N-ethylmaleimide ([^3H]-NEM) in pentane was evaporated in 0.5 mL phosphate buffer, and 25 mg of Hb in 1 mL buffer was added giving a final NEM:Hb ratio of 0.06:1, or 37 μCi/mg Hb. RP HPLC analysis after 24 hours at 4° C. indicated incorporation of the majority of the radiolabel into a modified beta peak. After 47 hr, a 15-fold excess (over βCys93 thiol) of non-radiolabeled NEM was added. Salts and unbound NEM were removed by gel filtration, and the final concentration adjusted to 10.2 mg Hb/mL. A small portion of this material (^3H-NEM-Hb) was then combined with rat serum containing haptoglobin to determine if all radiolabeled components bound to Hp. The Hb-binding capacity of the rat serum was adjusted to […] Hb/mL serum. 0.5 and 2.0 equivalents of ^3H-NEM-Hb, based on Hb-binding capacity, were combined with serum and analyzed -by size exclusion chromatography eluted under dissociating, non-denaturing conditions using 0.5 M MgCl2, 25 mM Tris pH 7.4 (FIG. 15). In the ^3H-NEM-Hb preparation, all radioactivity was associated with a 32 kDa peak. […] 7.3% of the radioactivity combining with plasma components appears in a high MW peak at 22 minutes.

[1] = Biodistribution of modified Hb and haptoglobin complexes in rat; settings: for AUC Liver / AUC Plasma: dose = ug Hb/g body weight, no extrapolation to time zero
Method: The ability of Hp to target modified Hb to the liver was measured in a radioisotope biodistribution study. Two test articles were prepared from purified human HbA0 modified with tritium-labeled N-ethylmaleimide ([^3H]-NEM-Hb): [^3H]-NEM-Hb alone in Ringer's lactate, and [^3H]-NEM-Hb complexed to a slight excess of rat haptoglobin in rat plasma. Three treatment groups were analyzed; (A) normal rats received the modified Hb-haptoglobin complex in plasma, (B) normal rats received the modified Hb only (approximately twice the Hb-binding capacity of the rat), and (C) haptoglobin-depleted rats received the modified Hb only. Approximately 3 mg of Hb were administered to conscious Sprague-Dawley rats in each case. Liver and plasma samples were collected at 30, 60 and 120 minutes post-administration and radioactivity counted after solubilization and quenching.

plasmid DNA (pCMVbeta) = experiment: Gel mobility shift assay of DNA binding; settings: 50 to 1600 ng of protein, 140 ng DNA
Method: Gel mobility shift assays were conducted to evaluate the stoichiometry of binding of plasmid DNA (pCMVbeta) to the THb-Kn conjugates. This gel electrophoretic method is based on the observation that the migratory properties of the DNA are altered upon binding protein. Neither proteins nor DNA-protein complexes in which protein constitutes a significant part of their mass enter 1% agarose gels. If mixtures with an increasing THb-Kn to DNA ratio are analyzed, it is observed that the DNA band disappears at and above the ratio that corresponds to the stoichiometry of the complex. For each of the four conjugates and for the THb-K26kDa-Hp complex, solutions containing from 0.4 to 6400 ng of the conjugate (this weight based on the hemoglobin component) in 32 μL of 20 mM HEPES pH 7.3 containing 150 mM NaCl were prepared. […] The samples (15 μL) were analyzed on a 1% agarose gel containing ethidium bromide (0.2 μg/mL). The amount of conjugate which prevented DNA entry into the gel was determined.
FIG. 4A (left) and 4B (right) are depictions of gel mobility shift assays of haptoglobin-hemoglobin-DNA conjugates produced according to Example 4. […] The results for THb-K26kDa are in good agreement with the fluorescence quench assay which indicated 86% of fluorescence decrease at the same THb-K26kDa to DNA ratio. […]

[2] = 30 minutes, haptoglobin-depleted rats (group C)
[3] = 30 minutes, normal rats (groups A, B)
[4] = haptoglobin-depleted rats (group C)

| reacted with Hp (anion exchange chromatography) (haptoglobin 1-1) | DNA binding (change in DNA migration) (plasmid DNA (pCMVbeta)) | Substance | capability of all components to bind rat haptoglobin in plasma (rat haptoglobin) | radioactivity appearing in the Hb-haptoglobin peak (rat haptoglobin; 0.5 eq. based on Hb-binding capacity of rat serum, SEC) | binding state at haptoglobin saturation (rat haptoglobin; 2.0 eq. based on Hb-binding capacity of rat serum, SEC) | radioactivity combining with plasma components appearing in high MW peak at 22 minutes (rat haptoglobin; rat serum, SEC) [%] | dose in the plasma and liver compartments relative to groups A and B [1, 2] | total dose in the liver [1, 2] [%] | dose in the plasma and liver compartments [1, 3] [%] | total dose in the liver [1, 3] | liver to plasma concentration/dose ratio ([1]; 120 minutes, normal rats (groups A, B)) | liver content relative to group C ([1]; 120 minutes, normal rats vs haptoglobin-depleted rats given modified Hb only) [fold] | AUC Liver [1, 4] [ug Hb · min/g/dose] | AUC Plasma [1, 4] [ug Hb · min/mL/dose] | liver uptake (area under distribution curve) relative to group C ([1]; normal rats (groups A, B) vs haptoglobin-depleted rats) | AUC Liver ([1]; normal rats (groups A, B)) [ug Hb · min/g/dose] | AUC Plasma ([1]; normal rats (groups A, B)) [ug Hb · min/mL/dose] |
| --- | --- | --- | --- | --- | --- | --- | --- | --- | --- | --- | --- | --- | --- | --- | --- | --- | --- |
| all | – | unmodified hemoglobin: unmodified (uncross-linked) hemoglobin remaining in the THb-PQ product mixture | – | – | – | – | – | – | – | – | – | – | – | – | – | – | – |
| – | – | [^3H]-NEM-Hb: purified human HbA0 modified with tritium-labeled N-ethylmaleimide; given alone to groups B and C | capable of binding rat haptoglobin in plasma | all radioactivity appeared in the Hb-haptoglobin peak | haptoglobin is saturated and excess ^3H-NEM-Hb remains unbound | 7.3 | roughly half that amount | 11 | 60 | approximately 20% | approximately 4 times | 2 | 234.0 | 163.0 | approximately twice that of group C | 510.4 | 284.2 |
| 74% | does not bind DNA | THb: TTDS (trimesoyl tris(3,5-dibromosalicylate)) cross-linked hemoglobin, hydrolyzed, without attached agent [reference compound] | – | – | – | – | – | – | – | – | – | – | – | – | – | – | – |
